According to PMC6421407, “Activation of GCN2 by the ribosomal P-stalk” (Proceedings of the National Academy of Sciences of the …, 2019):
One block for each molecule: values may come before it.

How the values were obtained:
[1] = biological target: human general control nonderepressible 2 (GCN2), full-length, StrepII-tagged (human) (UniProt Q9P2K8)
[2] = biological target: the molecule itself; test: SEC-MALS; purified GCN2 in solution; 392 kDa measured against 384 kDa theoretical for a homodimer

EC50 of stimulation of eIF2α phosphorylation by GCN2, titration of ribosomes [1]: 25 nM
fold stimulation of eIF2α phosphorylation by GCN2, titration of ribosomes [1]: 20 fold
Molecule: ribosomes purified from rabbit reticulocyte lysate (from UniProt G1SPK4 1-318; P19943 1-44; G1TT27 1-257) (complex)

B1: human general control nonderepressible 2 (GCN2), full-length, StrepII-tagged (enzyme, UniProt Q9P2K8 1-1649, looked up)
chain: MAGGRGAPGRGRDEPPESYPQRQDHELQALEAIYGADFQDLRPDACGPVKEPPEINLVLYPQGLTGEEVYVKVDLRVKCPPTYPDVVPEIELKNAKGLSNESVNLLKSRLEELAKKHCGEVMIFELAYHVQSFLSEHNKPPPKSFHEEMLERRAQEEQQRLLEAKRKEEQEQREILHEIQRRKEEIKEEKKRKEMAKQERLEIASLSNQDHTSKKDPGGHRTAAILHGGSPDFVGNGKHRANSSGRSRRERQYSVCNSEDSPGSCEILYFNMGSPDQLMVHKGKCIGSDEQLGKLVYNALETATGGFVLLYEWVLQWQKKMGPFLTSQEKEKIDKCKKQIQGTETEFNSLVKLSHPNVVRYLAMNLKEQDDSIVVDILVEHISGVSLAAHLSHSGPIPVHQLRRYTAQLLSGLDYLHSNSVVHKVLSASNVLVDAEGTVKITDYSISKRLADICKEDVFEQTRVRFSDNALPYKTGKKGDVWRLGLLLLSLSQGQECGEYPVTIPSDLPADFQDFLKKCVCLDDKERWSPQQLLKHSFINPQPKMPLVEQSPEDSEGQDYVETVIPSNRLPSAAFFSETQRQFSRYFIEFEELQLLGKGAFGAVIKVQNKLDGCCYAVKRIPINPASRQFRRIKGEVTLLSRLHHENIVRYYNAWIERHERPAGPGTPPPDSGPLAKDDRAARGQPASDTDGLDSVEAAAPPPILSSSVEWSTSGERSASARFPATGPGSSDDEDDDEDEHGGVFSQSFLPASDSESDIIFDNEDENSKSQNQDEDCNEKNGCHESEPSVTTEAVHYLYIQMEYCEKSTLRDTIDQGLYRDTVRLWRLFREILDGLAYIHEKGMIHRDLKPVNIFLDSDDHVKIGDFGLATDHLAFSADSKQDDQTGDLIKSDPSGHLTGMVGTALYVSPEVQGSTKSAYNQKVDLFSLGIIFFEMSYHPMVTASERIFVLNQLRDPTSPKFPEDFDDGEHAKQKSVISWLLNHDPAKRPTATELLKSELLPPPQMEESELHEVLHHTLTNVDGKAYRTMMAQIFSQRISPAIDYTYDSDILKGNFSIRTAKMQQHVCETIIRIFKRHGAVQLCTPLLLPRNRQIYEHNEAALFMDHSGMLVMLPFDLRIPFARYVARNNILNLKRYCIERVFRPRKLDRFHPKELLECAFDIVTSTTNSFLPTAEIIYTIYEIIQEFPALQERNYSIYLNHTMLLKAILLHCGIPEDKLSQVYIILYDAVTEKLTRREVEAKFCNLSLSSNSLCRLYKFIEQKGDLQDLMPTINSLIKQKTGIAQLVKYGLKDLEEVVGLLKKLGIKLQVLINLGLVYKVQQHNGIIFQFVAFIKRRQRAVPEILAAGGRYDLLIPQFRGPQALGPVPTAIGVSIAIDKISAAVLNMEESVTISSCDLLVVSVGQMSMSRAINLTQKLWTAGITAEIMYDWSQSQEELQEYCRHHEITYVALVSDKEGSHVKVKSFEKERQTEKRVLETELVDHVLQKLRTKVTDERNGREASDNLAVQNLKGSFSNASGLFEIHGATVVPIVSVLAPEKLSASTRRRYETQVQTRLQTSLANLHQKSSEIEILAVDLPKETILQFLSLEWDADEQAFNTTVKQLLSRLPKQRYLKLVCDEIYNIKVEKKVSVLFLYSYRDDYYRILF
notes: General control nonderepressible 2 (GCN2), human, full length; Homodimer by SEC-MALS (392 kDa measured, 384 kDa theoretical); also called construct A; full-length GCN2
stoichiometry N [2]: 2
